Laboratory results from publication PMC3848460.

Tests used:
[1] = molecular target: T1, SYP42 (Arabidopsis thaliana) (UniProt Q9SWH4)
T1 sequence: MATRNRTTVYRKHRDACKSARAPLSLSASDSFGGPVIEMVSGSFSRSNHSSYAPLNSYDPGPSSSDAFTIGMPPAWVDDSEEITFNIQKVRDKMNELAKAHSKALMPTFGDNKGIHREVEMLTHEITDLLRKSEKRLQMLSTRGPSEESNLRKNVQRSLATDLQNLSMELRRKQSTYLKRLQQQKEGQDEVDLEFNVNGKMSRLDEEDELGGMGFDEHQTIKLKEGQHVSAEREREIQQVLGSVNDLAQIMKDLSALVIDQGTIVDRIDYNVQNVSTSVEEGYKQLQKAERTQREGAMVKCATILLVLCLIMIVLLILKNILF

[2] = molecular target: T2, SYP41 (Arabidopsis thaliana) (UniProt O65359)
T2 sequence: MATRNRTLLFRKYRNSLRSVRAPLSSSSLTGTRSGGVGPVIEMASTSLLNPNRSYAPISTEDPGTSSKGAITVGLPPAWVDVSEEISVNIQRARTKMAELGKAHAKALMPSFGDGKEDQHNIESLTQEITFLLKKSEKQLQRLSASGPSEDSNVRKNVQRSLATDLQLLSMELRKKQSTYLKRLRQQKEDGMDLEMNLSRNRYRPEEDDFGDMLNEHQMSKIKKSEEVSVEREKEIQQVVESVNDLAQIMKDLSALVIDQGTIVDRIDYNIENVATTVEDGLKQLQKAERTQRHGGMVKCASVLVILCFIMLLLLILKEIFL

[3] = molecular target: T3, SYP43 (Arabidopsis thaliana) (UniProt Q9SUJ1)
T3 sequence: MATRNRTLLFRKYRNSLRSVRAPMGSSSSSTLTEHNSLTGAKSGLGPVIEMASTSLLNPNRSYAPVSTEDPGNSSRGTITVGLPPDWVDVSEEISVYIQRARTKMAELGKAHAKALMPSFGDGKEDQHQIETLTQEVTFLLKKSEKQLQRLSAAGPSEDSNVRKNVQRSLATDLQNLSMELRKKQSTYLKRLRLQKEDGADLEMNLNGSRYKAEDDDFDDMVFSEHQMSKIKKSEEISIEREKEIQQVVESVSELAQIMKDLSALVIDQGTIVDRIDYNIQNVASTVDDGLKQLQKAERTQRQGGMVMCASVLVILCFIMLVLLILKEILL

soluble fragment of VTI12 (domain or fragment)
< 4%: NBD fluorescence increase (lipid mixing) of SYP42 acceptor vesicles with R-VTI11 donor vesicles after 30 min preincubation with YKT62 and VTI12s; pair blocked: m2 + m4 [1] | NBD fluorescence increase (lipid mixing) of SYP42 acceptor vesicles with R-VTI12 donor vesicles after 30 min preincubation with YKT62 and VTI12s; pair blocked: m2 + m5 [1] | NBD fluorescence increase (lipid mixing) of SYP41 acceptor vesicles with R-VTI11 donor vesicles after 30 min preincubation with YKT62 and VTI12s; pair blocked: m1 + m4 [2] | NBD fluorescence increase (lipid mixing) of SYP41 acceptor vesicles with R-VTI12 donor vesicles after 30 min preincubation with YKT62 and VTI12s; pair blocked: m1 + m5 [2] | NBD fluorescence increase (lipid mixing) of SYP43 acceptor vesicles with R-VTI11 donor vesicles after 30 min preincubation with YKT62 and VTI12s; pair blocked: m3 + m4 [3] | NBD fluorescence increase (lipid mixing) of SYP43 acceptor vesicles with R-VTI12 donor vesicles after 30 min preincubation with YKT62 and VTI12s; pair blocked: m3 + m5 [3]

B1: soluble fragment of VTI11 (domain or fragment)
chain: MSDVFDGYERQYCELSASLSKKCSSAISLDGEQKKQKLSEIKSGLENAEVLIRKMDLEARTLPPNLKSSLLVKLREFKSDLNNFKTEVKRITSGQLNAAARDELLEAGMADTKTASADQRARLMMSTERLGRTTDRVKDSRRTMMETEEIGVSILQDLHGQRQSLLRAHETLHGVDDNIGKSKKILTDMTRRMNKNKWTI
< 4%: NBD fluorescence increase (lipid mixing) of SYP42 acceptor vesicles with R-VTI11 donor vesicles after 30 min preincubation with YKT62 and VTI11s; pair blocked: m2 + m4 [1] | NBD fluorescence increase (lipid mixing) of SYP42 acceptor vesicles with R-VTI12 donor vesicles after 30 min preincubation with YKT62 and VTI11s; pair blocked: m2 + m5 [1] | NBD fluorescence increase (lipid mixing) of SYP41 acceptor vesicles with R-VTI11 donor vesicles after 30 min preincubation with YKT62 and VTI11s; pair blocked: m1 + m4 [2] | NBD fluorescence increase (lipid mixing) of SYP41 acceptor vesicles with R-VTI12 donor vesicles after 30 min preincubation with YKT62 and VTI11s; pair blocked: m1 + m5 [2] | NBD fluorescence increase (lipid mixing) of SYP43 acceptor vesicles with R-VTI11 donor vesicles after 30 min preincubation with YKT62 and VTI11s; pair blocked: m3 + m4 [3] | NBD fluorescence increase (lipid mixing) of SYP43 acceptor vesicles with R-VTI12 donor vesicles after 30 min preincubation with YKT62 and VTI11s; pair blocked: m3 + m5 [3]
